Test results: paper PMC3271384 (Molecular Genetics and Metabolism, 2012)
Changes are numbered by the printed parent chain. Names and notes keep the numbering of the source.

B1: AGT-Mi (Homo sapiens; G161S/I340M/P11L) (protein)
chain: MASHKLLVTPLKALLKPLSIPNQLLLGPGPSNLPPRIMAAGGLQMIGSMSKDMYQIMDEIKEGIQYVFQTRNPLTLVISGSGHCALEAALVNVLEPGDSFLVGANGIWGQRAVDIGERIGARVHPMTKDPGGHYTLQEVEEGLAQHKPVLLFLTHGESSTSVLQPLDGFGELCHRYKCLLLVDSVASLGGTPLYMDRQGIDILYSGSQKALNAPPGTSLISFSDKAKKKMYSRKTKPFSFYLDIKWLANFWGCDDQPRMYHHTIPVISLYSLRESLALIAEQGLENSWRQHREAAAYLHGRLQALGLQLFVKDPALRLPTVTTVAVPAGYDWRDIVSYVMDHFDIEIMGGLGPSTGKVLRIGLLGCNATRENVDRVTEALRAALQHCPKKKL
B2: alanine:glyoxylate aminotransferase variant S187F on the major allele (enzyme, human, UniProt P21549 1-392, looked up)
chain: B1 chain with L11P, S161G, S187F, M340I
modifications: holo-form: pyridoxal 5'-phosphate in Schiff base linkage with the lysine at position 209; apo-form: without PLP
B3: AGT-Ma (Homo sapiens; S218L) (protein)
chain: B1 chain with L11P, S161G, S218L, M340I
B4: alanine:glyoxylate aminotransferase variant W108R on the minor allele (enzyme, human, UniProt P21549 1-392, looked up)
chain: B1 chain with W108R, S161G
modifications: holo-form: pyridoxal 5'-phosphate in Schiff base linkage with the lysine at position 209; apo-form: without PLP
B5: alanine:glyoxylate aminotransferase variant G350D on the minor allele (enzyme, human, UniProt P21549 1-392, looked up)
chain: B1 chain with S161G, G350D
modifications: holo-form: pyridoxal 5'-phosphate in Schiff base linkage with the lysine at position 209; apo-form: without PLP
B6: AGT-Ma (Homo sapiens; P319L) (protein)
chain: B1 chain with L11P, S161G, P319L, M340I
B7: alanine:glyoxylate aminotransferase variant P319L on the major allele (enzyme, human, UniProt P21549 1-392, looked up)
chain: B1 chain with L11P, S161G, P319L, M340I
modifications: holo-form: pyridoxal 5'-phosphate in Schiff base linkage with the lysine at position 209; apo-form: without PLP
B8: alanine:glyoxylate aminotransferase variant G161S on the minor allele (enzyme, human, UniProt P21549 1-392, looked up)
chain: B1 chain
modifications: holo-form: pyridoxal 5'-phosphate in Schiff base linkage with the lysine at position 209; apo-form: without PLP
B9: alanine:glyoxylate aminotransferase variant S158L on the major allele (enzyme, human, UniProt P21549 1-392, looked up)
chain: B1 chain with L11P, S158L, S161G, M340I
modifications: holo-form: pyridoxal 5'-phosphate in Schiff base linkage with the lysine at position 209; apo-form: without PLP
B10: alanine:glyoxylate aminotransferase variant D183N on the major allele (enzyme, human, UniProt P21549 1-392, looked up)
chain: B1 chain with L11P, S161G, D183N, M340I
modifications: holo-form: pyridoxal 5'-phosphate in Schiff base linkage with the lysine at position 209; apo-form: without PLP
B11: alanine:glyoxylate aminotransferase variant S218L on the major allele (enzyme, human, UniProt P21549 1-392, looked up)
chain: B1 chain with L11P, S161G, S218L, M340I
modifications: holo-form: pyridoxal 5'-phosphate in Schiff base linkage with the lysine at position 209; apo-form: without PLP
B12: alanine:glyoxylate aminotransferase variant G161C on the minor allele (enzyme, human, UniProt P21549 1-392, looked up)
chain: B1 chain with S161C
modifications: holo-form: pyridoxal 5'-phosphate in Schiff base linkage with the lysine at position 209; apo-form: without PLP

Columns and labels:
[1] = substrate: O=CC(=O)O; assay: spectrophotometric assay of pyruvate, coupled lactate dehydrogenase; assay type: biochemical, Homo sapiens; settings: saturating L-alanine as co-substrate; saturating PLP
[2] = target: the molecule itself; assay: dynamic light scattering
[3] = substrate: C[C@H](N)C(=O)O; assay: spectrophotometric assay of pyruvate, coupled lactate dehydrogenase; assay type: biochemical, Homo sapiens; settings: saturating glyoxylate as co-substrate; saturating PLP

Protein	stoichiometry N [2]	other results
B1	–	Km [1]: 630 ± 70 µM; kcat [1]: 58 ± 2 s⁻¹; kcat/Km [1]: 92000 ± 2000 M⁻¹ s⁻¹
B2	2	–
B3	–	Km [3]: 29000 ± 6000 µM; kcat [3]: 2.7 ± 0.1 s⁻¹; kcat/Km [3]: 90 ± 20 M⁻¹ s⁻¹
B4	2	–
B5	2	–
B6	–	Km [1]: 110 ± 20 µM; kcat [1]: 26.2 ± 0.7 s⁻¹; kcat/Km [1]: 238000 ± 44000 M⁻¹ s⁻¹
B7	2	–
B8	2	–
B9	2	–
B10	2	–
B11	2	–
B12	2	–
